Assay results reported in patent US20220331457A1 (TELIX INTERNATIONAL, published 2022).
Where a chain is given by its changes, count along the chain named. Numbers in names are those of the source. One block for each binder: values may come before it.

Tests used:
[1] = biological target: T1, human carbonic anhydrase IX (CAIX) (human, UniProt Q16790 38-414); assay: competition ELISA on coated CAIX; competitor: biotinylated chimeric Girentuximab IgG1
Description: CAIX was diluted in 1×PBS to 0.5 μg/ml and 100 μl/well was coated overnight at 4° C. on a 96-well ELISA plate. The following day, the plate was washed 3× with 1×PBS/0.05% Tween (PBST) and blocked with 200 μl of 2% BSA/PBS for one hour at room temperature.
After washing the plate 3× with PBS-T, 100 μl of chimeric/test antibody mix was added to the ELISA plate.
For colour development, the plate was washed 3× with PBS-T following which 100 μl of TMB substrate was added and incubated for approximately five minutes at room temperature. The reaction was stopped with 50 μl of 3.0 M hydrochloric acid and absorbance was read immediately using a Dynex plate reader at 450 nm.

[2] = biological target: T1, human carbonic anhydrase IX (CAIX); assay: SPR (Biacore T200), single cycle kinetics; antibody in HEK EBNA supernatant captured on Protein G chip, CAIX as analyte
Description: All single cycle kinetic experiments were run at 25° C. with HBS-P+ running buffer (pH 7.4) (GE Healthcare, Little Chalfont, UK). For direct comparison, all antibodies were captured on a Protein G chip (GE Healthcare, Uppsala, Sweden).
Antibodies were diluted in running buffer to a final concentration of 0.5 μg/ml, based on concentrations assessed by ELISA titre. At the start of each cycle, antibodies were loaded onto Fc2, Fc3 and Fc4 of the Protein G chip (GE Healthcare, Little Chalfont, UK). IgGs were captured at a flow rate of 10 μl/min to give an immobilisation level (RL) of ˜79 RU, the theoretical value to obtain an Rmax of ˜50 RU. The surface was then allowed to stabilise. Single cycle kinetic data was obtained with Carbonic Anhydrase IX (CAIX, Stratech, Newmarket, UK) as the analyte at a flow rate of 30 μl/min to minimise any potential mass transport limitations. […] The signal from the reference channel Fc1 (no antibody) was subtracted from that of Fc2, Fc3 and Fc4 to correct for differences in non-specific binding to a reference surface. […] The association phase for the four injections of increasing concentrations of CAIX was monitored for 200 seconds each time and a single dissociation phase was measured for 300 seconds following the last injection of CAIX. Regeneration of the Protein G surface was conducted using an injection of 10 mM glycine-HCL pH 1.5 followed by an injection of 10 mM glycine-HCL pH 1.5 containing 0.5% P20.

[3] = biological target: T1, human carbonic anhydrase IX (CAIX); assay: Biacore multicycle analysis and competition ELISA (conclusion of Example 1)
[4] = biological target: T1, human carbonic anhydrase IX (CAIX); assay: Biacore multicycle kinetic analysis (conclusion of Example 1)
Description: (§1) The purified antibodies were diluted to a concentration of 1 μg/ml in HBS-P+. […] Following capture, the surface was allowed to stabilise. Kinetic data was obtained using a flow rate of 30 μl/min to minimise any potential mass transfer effects. For the kinetics analysis, carbonic anhydrase IX (CAIX) was used. Multiple repeats of the blank (CAIX) and a repeat of a single concentration of the analyte were programmed into the kinetic run in order to check the stability of both the surface and analyte over the kinetic cycles. For kinetic analysis, a two-fold dilution range was selected from 50 nM to 0.078 nM CAIX. The association phase of CAIX was monitored for 280 seconds and the dissociation phase was monitored for 300 seconds. Regeneration of the Protein G surface was conducted using an injection of 10 mM glycine-HCL pH 1.5 followed by an injection of 10 mM glycine-HCL pH 1.5 containing 0.5% P20. The signal from the reference channel Fc1 was subtracted from that of Fc2, Fc3 and Fc4 to correct for differences in non-specific binding to a reference surface, and a global Rmax parameter was used in the 1-to-1 binding model. The relative KD was calculated by dividing the KD of the humanised variants by that of the chimeric antibody on the same chip.

[5] = biological target: T1, human carbonic anhydrase IX (CAIX); assay: SPR (Biacore T200), multicycle kinetics; purified antibody captured on Protein G chip, CAIX as analyte
Description: as §1

[6] = biological target: T1, human carbonic anhydrase IX (CAIX); assay: SPR (Biacore T200), multicycle kinetics; purified CHO-expressed antibody captured on Protein G chip, CAIX as analyte
Description: as §1

B1: Girentuximab humanised VH4/Vκ3 IgG1 (antibody)
heavy: not shown
light: DIQMTQSPSSLSASVGDRVTITCKASQNVVSAVAWYQQKPGQAPRLLIYSASNRYTGVPDRFSGSGSGTDFTLTISSLQAEDLADYFCQQYSNYPWTFGGGTKVEIKRTVAAPSVFIFPPSDEQLKSGTASVVCLLNNFYPREAKVQWKVDNALQSGNSQESVTEQDSKDSTYSLSSTLTLSKADYEKHKVYACEVTHQGLSSPVTKSFNRGEC
relative IC50 (IC50 of the variant divided by IC50 of the Girentuximab chimeric IgG1 antibody on the same plate) [1]: ≤ 2 fold
relative KD (against the reference chimeric VH0/Vκ0 IgG1) [2]: ≤ 2 fold
binding relative to the IgG1 chimeric antibody [3]: ≤ 2 fold
binding relative to VH0/Vκ0 with the same IgG backbone [4]: ≤ 2 fold
relative KD (KD of the variant divided by KD of the chimeric antibody on the same chip) [5]: ≤ 2 fold
relative KD (KD of the variant divided by KD of the chimeric antibody with the same IgG constant domain) [6]: ≤ 2 fold

B2: Girentuximab humanised VH4/Vκ4 IgG1 (antibody)
heavy: not shown
light: B1 light with F87Y
relative IC50 (IC50 of the variant divided by IC50 of the Girentuximab chimeric IgG1 antibody on the same plate) [1]: ≤ 2 fold
relative KD (against the reference chimeric VH0/Vκ0 IgG1) [2]: ≤ 2 fold
binding relative to the IgG1 chimeric antibody [3]: ≤ 2 fold
binding relative to VH0/Vκ0 with the same IgG backbone [4]: ≤ 2 fold
relative KD (KD of the variant divided by KD of the chimeric antibody on the same chip) [5]: ≤ 2 fold
relative KD (KD of the variant divided by KD of the chimeric antibody with the same IgG constant domain) [6]: ≤ 2 fold

B3: Girentuximab humanised VH4/Vκ2 IgG1 (antibody)
heavy: not shown
light: B1 light with Q3V, S63T
relative IC50 (IC50 of the variant divided by IC50 of the Girentuximab chimeric IgG1 antibody on the same plate) [1]: ≤ 2 fold
relative KD (against the reference chimeric VH0/Vκ0 IgG1) [2]: ≤ 2 fold
binding relative to the IgG1 chimeric antibody [3]: ≤ 2 fold
relative KD (KD of the variant divided by KD of the chimeric antibody on the same chip) [5]: ≤ 2 fold

B5: Girentuximab humanised VH3/Vκ3 IgG1 (antibody)
heavy: not shown
light: B1 light
relative IC50 (IC50 of the variant divided by IC50 of the Girentuximab chimeric IgG1 antibody on the same plate) [1]: ≤ 2 fold
relative KD (against the reference chimeric VH0/Vκ0 IgG1) [2]: ≤ 2 fold
binding relative to the IgG1 chimeric antibody [3]: ≤ 2 fold
relative KD (KD of the variant divided by KD of the chimeric antibody on the same chip) [5]: ≤ 2 fold

B8: Chimeric Girentuximab (VH0/Vκ0) IgG4 (S228P, L235E, H310A, H435Q) (antibody)
heavy: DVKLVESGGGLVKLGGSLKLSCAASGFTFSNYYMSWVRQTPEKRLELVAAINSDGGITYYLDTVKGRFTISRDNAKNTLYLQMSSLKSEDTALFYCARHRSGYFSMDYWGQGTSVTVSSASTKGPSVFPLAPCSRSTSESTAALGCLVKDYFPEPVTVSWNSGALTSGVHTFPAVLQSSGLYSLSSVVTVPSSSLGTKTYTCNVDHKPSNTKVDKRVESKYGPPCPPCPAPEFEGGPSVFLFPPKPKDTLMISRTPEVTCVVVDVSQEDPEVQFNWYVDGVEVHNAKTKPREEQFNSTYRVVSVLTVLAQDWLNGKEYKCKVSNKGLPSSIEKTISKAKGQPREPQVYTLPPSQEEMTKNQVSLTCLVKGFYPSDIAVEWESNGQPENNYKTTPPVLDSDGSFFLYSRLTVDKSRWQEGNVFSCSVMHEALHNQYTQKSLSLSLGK
light: DIVMTQSQRFMSTTVGDRVSITCKASQNVVSAVAWYQQKPGQSPKLLIYSASNRYTGVPDRFTGSGSGTDFTLTISNMQSEDLADFFCQQYSNYPWTFGGGTKLEIKRTVAAPSVFIFPPSDEQLKSGTASVVCLLNNFYPREAKVQWKVDNALQSGNSQESVTEQDSKDSTYSLSSTLTLSKADYEKHKVYACEVTHQGLSSPVTKSFNRGEC
notes: Chimeric antibody on the FcRn- and FcRγ-null IgG4 backbone; also called chimeric IgG4 (S228P, L235E, H310A, H435Q)
relative IC50 (IC50 of the variant divided by IC50 of the Girentuximab chimeric IgG1 antibody on the same plate) [1]: ≤ 2 fold
relative KD (KD of the variant divided by KD of the chimeric antibody on the same chip) [5]: ≤ 2 fold

Next, values leading:

relative IC50 (IC50 of the variant divided by IC50 of the Girentuximab chimeric IgG1 antibody on the same plate) [1]: ≤ 2 fold
relative KD (against the reference chimeric VH0/Vκ0 IgG1) [2]: ≤ 2 fold
binding relative to the IgG1 chimeric antibody [3]: ≤ 2 fold
relative KD (KD of the variant divided by KD of the chimeric antibody on the same chip) [5]: ≤ 2 fold
B4: Girentuximab humanised VH3/Vκ2 IgG1 (antibody)
heavy: not shown
light: B1 light with Q3V, S63T

relative IC50 (IC50 of the variant divided by IC50 of the Girentuximab chimeric IgG1 antibody on the same plate) [1]: ≤ 2 fold
relative KD (against the reference chimeric VH0/Vκ0 IgG1) [2]: ≤ 2 fold
binding relative to the IgG1 chimeric antibody [3]: ≤ 2 fold
binding relative to VH0/Vκ0 with the same IgG backbone [4]: ≤ 2 fold
relative KD (KD of the variant divided by KD of the chimeric antibody on the same chip) [5]: ≤ 2 fold
relative KD (KD of the variant divided by KD of the chimeric antibody with the same IgG constant domain) [6]: ≤ 2 fold
B6: Girentuximab humanised VH3/Vκ4 IgG1 (antibody)
heavy: not shown
light: B1 light with F87Y

relative IC50 (IC50 of the variant divided by IC50 of the Girentuximab chimeric IgG1 antibody on the same plate) [1]: ≤ 2 fold
relative KD (KD of the variant divided by KD of the chimeric antibody on the same chip) [5]: ≤ 2 fold
B7: Chimeric Girentuximab (VH0/Vκ0) IgG1 (H310A, H435Q) (antibody)
heavy: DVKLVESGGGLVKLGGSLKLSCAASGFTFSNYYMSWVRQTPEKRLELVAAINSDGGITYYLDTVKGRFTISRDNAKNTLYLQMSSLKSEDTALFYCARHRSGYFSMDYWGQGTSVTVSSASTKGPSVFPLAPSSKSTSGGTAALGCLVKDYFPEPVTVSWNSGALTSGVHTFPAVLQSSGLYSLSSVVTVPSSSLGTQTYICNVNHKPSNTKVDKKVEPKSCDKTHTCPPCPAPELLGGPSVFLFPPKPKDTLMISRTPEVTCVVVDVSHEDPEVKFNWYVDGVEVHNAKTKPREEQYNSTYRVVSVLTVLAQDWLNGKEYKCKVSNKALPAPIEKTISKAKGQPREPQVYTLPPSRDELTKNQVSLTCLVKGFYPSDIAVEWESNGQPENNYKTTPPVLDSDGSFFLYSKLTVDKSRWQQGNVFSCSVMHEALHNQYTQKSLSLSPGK
light: B8 light
notes: Chimeric antibody on the FcRn-null IgG1 backbone; also called chimeric IgG1 (H310A, H435Q)
